In the nanobody polyreactivity screen of Harvey et al. (2022):

Assay: yeast display, Sf9 membrane polyspecificity reagent, FACS + sequencing; frameworks hold sequencing errors
How it was run: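 A synthetic nanobody library was expressed on Saccharomyces cerevisiae BJ5465 by galactose induction for 36–48 hours. The library was stained for 1 hour at 4 °C with 10% biotinylated, detergent-solubilized Sf9 membrane reagent and enriched with streptavidin microbeads before FACS. Low and high (top ~1%) gates were set on anti-HA fluorescence for expression and streptavidin fluorescence for reagent binding, and each polyreactivity label reflects the gate of origin.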

| Sequence | polyreactivity (PSR sort gate) |
| --- | --- |
| QVQLVESGGGLVKAGGSLRLSCAASGRTFWIYAMGWYRPAPGKERELRAAISQSSSNTYYADSVKGRVTLSRDNAKNTVYLQMNSLKPEDTAVYYCNAVVLRYQGSWLEYWGQGTQVTVSS | low polyreactivity |
| QVQLVESGGGLVKAGGSLRLSCAASGSIFKSNAMGWYRQAPGKEWELVAAISDSGGSTYYADSVKGRFTISRDNAKNTVYLQMNSLKPEDTAVYYCNADWSWYNYYDFDYWGQGTQVTVSS | low polyreactivity |
| QVQLVESGGGLVKAGGSLRLSCAASGSIFLTYAMGWNRQAPGKERELVAAITQSGGSTYYADSVKGRFTISRDNAKNTVYLQMNSLKPEDTAVYYCAADVFGPQYWWYDYWGQGTQVTVSS | low polyreactivity |
| QVQLVESGGGLVKAGGSLRLSCAASGSIFYFNAMGWYRQAPGKERELVATIRSGDGRTYYADSVKGRFTISRDNAQNTVYLQMNSLKPEDTAVYYCNASRVVYRQAYVYGYDYWGKGTQVTVSS | low polyreactivity |
| QVQLVESGGGLVKAGGSLRLSCAASGSTFDYYAMGWYRQAPGKERELVAAISGSGGSTYYADSVKGRFTISRDIAKNTVYLQMNSLKPEDTAVYYCATVRSRLFGQYYYWGQGTQVTVSS | high polyreactivity |
| QVQLVESGGGLVKAGGSLRLSCAASGSTFERYAMGWYRQAPGKERELVAAINWSGGGTYYADSVKGRFTISRDNAKNTVYFQMNSLKPEDTAVYYCAADSGTVVFSLWWYEYYYWGQGTQVTVSS | low polyreactivity |
| QVQLVESGGGLVKAGGSLRLSCAASGSTFLWTTMGWYRPAPGKERELVAAISRSGGSTYYADSVKGRFTISRDNAKNTVYLQMISLKPEDTAVYYCAARTAGPWSWYHYWGQGTQVTVSS | high polyreactivity |
| QVQLVESGGGLVKAGGSLRLSCAASGSTFWYNAMGCYRQAPRKERELVAAITRGASTNYADSVKGRFTISRDNAKNTVYLQMNCLKPEDTAVYYCAGGPARWKGYYWGQGTQVTVSS | high polyreactivity |
| QVQLVESGGGLVKAGGSLRLSCAASGSTYQTYAMGWYRHAPGKERELVAAISFNGGSTYYADSVKGRFTISRDNAKNTVYLQMNSLKPEDTAVYYCAVEYTWASALYDGRHDYWGQGTQVTVSS | high polyreactivity |
| QVQLVESGGGLVKAGGSLRLSCVASGLMFGYCAMGWYRQPPGTERELVAVISWSGTSRYYADSVKGRFTISRDNAKNTVYLQMNSLKPEDTAVYYCIADTYGYYLWTGAVSAGDDYWVQGTQVTVSS | low polyreactivity |
| QVQLVESGGGLVKAGGSLRLTCSASGSIFRRNALRCSRHAPGKERELDAAISSGGSTNYADSVKGRFTISRDNAKNTVYLQMISQKPEDSAVYYCNTRYFRRARKGDSWGQGTQVTVSS | high polyreactivity |
| QVQLVESGGGLVKAGVSLRLICAASGSTFDGNDMGWYRQAHGKERELVATINSDDSKNYADSVKGRFTISRDNAKNTVYLQMNSLKPEDTAVYYCAARLYVTPILSYVERYTNDYWGQGTQVTVSS | low polyreactivity |
| QVQLVESGGGLVKAGVSLRLICAASGSTFWYNDRGSYRQSPGKERELVASNSWSGGDTYYADSVKGRLTISRDNAQNTVYFQMNRLKPEDTAVYNCAKGNNWISRLMDYWGQGTQVTVSS | low polyreactivity |
| QVQLVESGGGLVLAGGRLRLSCAASGRIFTRYAMGCYRQAPGKERELVAVITRSGGSTYYADSVKGRFTISRDIAKNTVYLQMNSLKPEDTAVYYCAAKYYGEMYYWGQGTQVTVSS | low polyreactivity |
| QVQLVESGGGLVLAGGRLRLSFAASGFIFYQYAKAWYRQATGKEWEFVAAISRNGGSTYYADSVKGRFTISRDNATNTVYLQMNSLKPEDTAVYYCNRDCGGLWSENGYWGQGPQVTVSS | high polyreactivity |
| QVQLVESGGGLVLAGGSLRLSCAASGITFFTYTMGWYRQAPGKERELVARIRWDGGSTYYADSVKGRFTISRDNAKNTVYLQMNSLKPEDTAVYYCAADYPYSTYDYWGQGTQVTVSS | low polyreactivity |
| QVQLVESGGGLVLAGGSLRLSCAASGRIFAVYAMGWYRQAPGQERELVAAIRARGGSTYYADSVKGRFTISRDNAKNTVDLQMNSLKPEDTPDYYCTARTSYSRTYRYYYWGQGTQVTVSS | high polyreactivity |
| QVQLVESGGGLVLAGGSLRLSCAASGRIFWNYAMGWYRQAPGKERELVASINWSGGSTYYADSVKGRFTISRDNAKNTVYLQMNSLKPEDTAVYYCNKDGRVYLDHDYWGQGTQVTVSS | low polyreactivity |
| QVQLVESGGGLVLAGGSLRLSCAASGRPFYGNTMGWYRQAPGKERELVAAISYSGGTTSYADSVKGRFTISRDNAKNTVYLQMNSLKPEDTAVYYCAKRYSYWWTSGYDYWGQGTQVTVSS | high polyreactivity |
| QVQLVESGGGLVLAGGSLRLSCAASGRTFGVYAMGWYRQAPGKERELVADITYRDGSTYYADSVKGRFTISRDNAKNTVYLQMHSLKPEDTAVYYCAAAESTWFDWVWMDYWGQGTQVTVSS | high polyreactivity |
| QVQLVESGGGLVLAGGSLRLSCAASGRTFGWNAMGWYRQAPGTERELVAAISWSGGSTSYADSVKARFTISRDNAKNTVYLQMNSLKPEDTAVYYCGKLDSYGMYYWGQGTQVTVSS | low polyreactivity |
| QVQLVESGGGLVLAGGSLRLSCAASGSMFGGYAMGWYLQSPGKERELVAAISYRGASTYYADSVKGRFTISRDNAKNTVYLQMNSVKPEDTAVYYCAVAARTRDRVLYGYDYWGQGTQVTVSS | low polyreactivity |

| Sequence | polyreactivity (PSR sort gate) |
| --- | --- |
| QVQLVESGGGLVLAGGSLRLSCAASGSTFDTYAMGWYRQAPGKERELVAAITSGGITNYADSVKGRFTISRDNAKNTVYVQMNSLKPEDTAVYYCAKEGFWPRQARRLDYWGQGTQVTVSS | low polyreactivity |
| QVQLVESGGGLVLAGGSLRLSCASSGRIFYGYAMVWSRQAPGKERELVAAITSSGRTYYADSVKGRFSISRDNAKNTVYLLMNSLKPEDTAVYYCNVVTKFTGRGYDFWGQGTQVTVSS | high polyreactivity |
| QVQLVESGGGLVLAGGSLRLTCAASGRTFSQYTMGWYRQAPGKERELVAAISVSGTSTYYADSVKGRFTISRDNAKNTVYLQMNSLKPEDTAVYYCAAGYQRITRFAHRKYGYWGQGTQVTVSS | high polyreactivity |
| QVQLVESGGGLVLTGGSLRLSCAASGSILGTYAMGWYRQAPGKERELVARISRGGSTNYADSVKGRFTISRDNAKNTVYLQMNSLKPEDTAVYYCAKRLYLPESWRYYYWGQGTQVTVSS | high polyreactivity |
| QVQLVESGGGLVPAGGSLRLICAASGSTFYGYAIGWYRPAPGKVRELVATITSGGTRTRYADSVKGRFTISRDNAKKTVYLQMNSLKPEDTAVYYCNAVYRARSYDYWGQGTQVTVSS | high polyreactivity |
| QVQLVESGGGLVPAGGSLRLSCAASGFIFRYNTMGWYRQAPGKERELVAAITSGDSTYYADSVKGRFTISRDNAKNTVYLQMNSLKPEDTAVFYCAAAAYDSNGRYYYWGQGTQVSVSS | high polyreactivity |
| QVQLVESGGGLVPAGGSLRLSCAASGFTFDSYAMGWYRQAPGKERELVAAMSYRGGTTYYADSVKGRFTISRDNAKNTVYLQMNSLKPEDTAVYYCTRLWKYGYNYWGQGTQVTVSS | high polyreactivity |
| QVQLVESGGGLVPAGGSLRLSCAASGITIGRNTMGWYRQAPGKERELVAAIDSGGNTYADSVKGRFTISRDNAKNTVYLQMNSLKPEDTAVYYCAVDGGEFSSYGYWGQGTQVTVSP | low polyreactivity |
| QVQLVESGGGLVPAGGSLRLSCAASGRIFRGYAMGWYRQAHGKEREFVAAITKNGGTTYYADSVKGRFTISRDNAKNTVYLQMNSLKPEDTAVYYCNKDGYPWPPNLDYWGQGTQVTVSS | low polyreactivity |
| QVQLVESGGGLVPAGGSLRLSCAASGRIFRVYAMGWYRQAPGKERELVASISSGGSTNYADSVKGRFTISRDNAKNTVYLQMNSLKPEDTAVYYCAADYWYRLFWYYGAPLDYWGQGTQVTVSS | low polyreactivity |
| QVQLVESGGGLVPAGGSLRLSCAASGRTFYTNSMGWYRQAPGKERELVAAITYSGGSTYYADSVKWRFTISRDNAKNTVYLHMNSLKPEDTAVYYCAADYRAPLDYWGQGTQVTVSS | low polyreactivity |
| QVQLVESGGGLVPAGGSLRLSCAASGSIFYHNAMGWYRQAPGKERELVAAISYRTGRTYYADSVKGRFTISRDNAKNTVYLQMNSLKPEDTAVYYCAAPYSWGQATQVTVSS | high polyreactivity |
| QVQLVESGGGLVPAGGSLRLSCAASGSMNTLYAMGWYRHAPGKERDLVADITRSGGSTYYADSVKGRFTISRDNAMNTVYLQMNSLKPEDTAVYYCAADKAPYSTEGDYWGQGTQVTVSS | high polyreactivity |
| QVQLVESGGGLVPAGGSLRLSCAASGSTFCPYAMGWYRQAPGKERELVADITSSGGSTYYADSVKGRFTISRDNAKNTVYLQMNSLKPEDTAVYYCAADWSNLGAYDYWGQRTQVTVSS | low polyreactivity |
| QVQLVESGGGLVPAGGSLRLSCAASGYTFQYNDRGWYRHAPGKETELVAGISIGGSTNYADSVKGRFTISRDNAKHTVYLQMNSLKPEDTAVYYCAARTLWFPGPTSTTVGYKDGYWGQGTQVTVSS | low polyreactivity |
| QVQLVESGGGLVPAGGSLRLSCASSGRTFYPYAMGRYRQAPGKERELVAAITTSGGRTYYADSVKGRFTISRDNAKNTVYLQMNSLKPEDTGVYYCAKVYREGEGKFDYWGQGTQVTVSS | high polyreactivity |
| QVQLVESGGGLVPAGGSRRLSCAASGFTFGGYAMGWYRQAPGKETELVAAMRSSGDTTYDADSVKGRFTISRDNAKKTVNLQMNSLKPEDTAVYYCAARWGTYWGGLGGDPDIDYDDWGQGTQVTVSS | low polyreactivity |
| QVQLVESGGGLVPARGSLRLSSAASGIIFSRYAMGWYRQAPGKERELVAAITRSGGDTYYADSVKGRFTISRDNAKTTFYLQMKSLTPEDSADYYCAAERTWYPWVATGYYWGQGTQVTVSS | low polyreactivity |
| QVQLVESGGGLVQAAGRLRLSCAASGRIFQWNAMGWSRQAPGKERQLVATISSRGGSTYYADSVKGRFTISRDNEKITVYLQMNSLIPEDTAVYYCAARYYAKYRSYDYWGQGSQVTVSS | high polyreactivity |
| QVQLVESGGGLVQAAGSLLLSCAPSGFIFYYNAMGWYRQAPGKETELVATIRGSGGSTYYADSVKGRFTISRDYAKNTVYLQMNSLKPEDTAVYYCAASVQYRRLKKFYYWGQGTQVTVSS | high polyreactivity |
| QVQLVESGGGLVQAAGSLRLSCAASGFTFLRYAMGWYRQAPGKERELVAGITKSGGTTYYADSVKGRFTISRDNAKNTVYLQMNSLKPEDTAVYYCNALYSRRRRPYTDDYDYWGQGTQVTVSS | high polyreactivity |
